Measured values as given in patent US20220089765A1, “CD31 COMPETITORS AND USES THEREOF” (ENCEFA, priority 2019, published 2022).
Numbering of substitutions follows the chain as printed.

B1: ABBV-8E12: monoclonal antibody whose brain/plasma ratio in humans is cited (antibody, chains of the INN, looked up, V domains shown)
VH: EVKVVESGGGLVQPGGSMKLSCVVSGFTFSNYWVNWVRQAPGKGLEWVAQIRLKSDNYATHYEESVKGRFTISRDDSKSSVYLQMNNLRAEDSGIYYCTNWEDYWGQGTTVTVSS
VL: DIVLTQSPDSLAVSLGERATISCRASQSVSTSRYSYIHWYQQKPGQPPKLLIKYASNLESGVPSRFSGSGSGTDFTLNIHPLEPEDFATYYCHHSWEIPLTFGQGTKLEIK
B2: Clone C05: anti-human CD38 antibody, HCVR SEQ ID NO: 34 and LCVR SEQ ID NO: 40 (antibody, V domains shown)
VH: EVQLVESGGSLVKPGGSLRLSCAASGFTFSNNYMNWVRQAPGKGLEWISSISGSSRYISYADFVKGRFTISRDNAKNSLYLQMNSLRAEDTAVYYCVRSSSSYYYSGNGMDVWGRGTLVTVSS
VL: QSVLTQPASVSGSPGQSITISCAGTSSDVGGSSYVSWYQQHPGKAPKLMIYYDSYRPSGVSNRFSGSKSGNTASLTISGLQAEDEADYYCSSNTYYSTRVFGGGTKL
modifications: HCVR C05; LCVR C05/C06
B3: Clone D06: anti-human CD38 antibody, HCVR SEQ ID NO: 36 and LCVR SEQ ID NO: 41 (antibody, V domains shown)
VH: EVQLVESGGSLVKPGGSLRLSCAASGFTFSNYDMNWVRQAPGKGLEWISYIYGSSRDISYADFVKGRFTISRDNAKNSLYLQMNSLRAEDTAVYYCVRSSGYYFGYGMDVWGRGTLVTVSS
VL: B2 VL with S33Y, Y52S, Y95A
modifications: HCVR D06; LCVR D06
B4: Clone C06: anti-human CD38 antibody, HCVR SEQ ID NO: 35 and LCVR SEQ ID NO: 40 (antibody, V domains shown)
VH: B2 VH with N32S, Y33A, Y57N, S59Y, S101Y, Y103S, Y105G
VL: B2 VL
modifications: HCVR C06; LCVR C05/C06
B5: Clone D10: anti-human CD38 antibody, HCVR SEQ ID NO: 38 and LCVR SEQ ID NO: 42 (antibody, V domains shown)
VH: B2 VH with N32S, Y33A, Y57D, S59Y
VL: B2 VL with S32N
modifications: HCVR D10; LCVR D07/D10
B6: Clone D07: anti-human CD38 antibody, HCVR SEQ ID NO: 37 and LCVR SEQ ID NO: 42 (antibody, V domains shown)
VH: B2 VH with N32S, Y33A, S50Y, Y57D, N108S
VL: B2 VL with S32N
modifications: HCVR D07; LCVR D07/D10

Assays:
[1] = biological target: CD38 (on cells of midbrain cultures from Wistar rat embryos) (UniProt Q64244); assay: cell-based or functional assay
Sequence of UniProt Q64244 (Q64244 whole entry): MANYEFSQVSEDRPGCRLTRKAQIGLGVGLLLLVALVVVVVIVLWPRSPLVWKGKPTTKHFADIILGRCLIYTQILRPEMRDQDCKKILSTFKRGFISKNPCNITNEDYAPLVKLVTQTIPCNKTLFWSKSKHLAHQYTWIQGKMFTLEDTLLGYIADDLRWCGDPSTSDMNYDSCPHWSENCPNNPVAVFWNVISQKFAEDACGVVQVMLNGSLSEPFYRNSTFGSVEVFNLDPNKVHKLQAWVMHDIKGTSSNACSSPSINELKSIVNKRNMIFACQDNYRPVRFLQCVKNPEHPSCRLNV

[2] = tested on: dopaminergic neurons of the right substantia nigra pars compacta; assay: 6-OHDA mouse model, number of DA (TH+) neurons; assay type: in vivo, mice
Description: We aimed at determining whether B08 or D06 anti-CD38 antibodies were neuroprotective in vivo against neurodegeneration induced by oxidative stress. Mouse were administered with 6-hydroxydopamine (6-OHDA) in the right striatum. Since 6-OHDA is an analogue of dopamine, it is transported in dopaminergic neurons through the dopamine transporter, resulting in a specific degeneration and loss of dopaminergic neurons of the right substantia nigra pars compacta. It has been extensively used as a test system for novel symptomatic agents and for assessment of neuroprotective and neurorepair strategies (Galindo et al., 2014. In Kostrzewa (Ed.), Handbook of neurotoxicity (1st Ed., pp. 639-651). New York: Springer-Verlag). Since 6-OHDA is injected unilaterally in the right striatum, left striatum remains unaffected and each mouse is its own control.
Two in vivo mouse models were used: the 6-OHDA mouse model and the MPTP mouse model. For the 6-OHDA mouse model, the intoxication protocol was based on the unilateral stereotaxic intrastriatal injection of 6-OHDA in the right striatum. Intracerebral or intravenous injections of treatments were made either the day before the surgical stereotaxic procedure, concomitantly with 6-OHDA during the surgical stereotaxic procedure, or two days after 6-OHDA injection. Animals were sacrificed 8 days after the surgical stereotaxic procedure.
For unilateral 6-OHDA mouse model, animals were anesthetized using Chloral hydrate (400 mg/kg, i.p.) and placed into a stereotactic frame adapted to mice. The injection was performed using a Hamilton syringe at the following coordinates: AP: […], ML: […], DV: […] (corresponding to the atlas of Franklin and Paxinos, 1997). A total volume of 2.5 μL containing or not 5 μg of 6-OHDA diluted in PBS in the presence or the absence of test treatments was injected. The needle was left in place for 10 min after the injection before retraction.
Mice were sacrificed by cervical dislocation, and beheaded to collect brain and blood samples. The brain was fixed in a paraformaldehyde solution (4%) during 1 day before being soaked in sucrose (30%) during 2 days and then froze at −80° C. for further analysis.
Each brain was sliced using a freezing microtome at −30° C. The thickness of each slice was 20 μm. The slicing was done around the substantia nigra (80 slices from slice 51 to 63 according to Allen Mouse Brain).
Slices were then washed out in PBS and incubated with anti-Tyrosine Hydroxylase to stain dopaminergic neurons (Abcam®) during 2 days, at 4° C., with agitation. Slices were incubated with corresponding secondary antibody in the presence of DAPI (Sigma Aldrich®) to stain cell's nuclei during 2 hours at room temperature, and mounted on gelatin-coated slides.
The slices were imaged using a Nikon TE2000 U equipped with a Hamamatsu ORCE-ER camera or with a Zeiss Axio Vert.A1 equipped with an axiocam 503 mono camera. Image analysis was done using Image J software or Zen (Zeiss®).

[3] = in humans; cited from earlier work
[4] = tested on: midbrain dopaminergic (TH+) neurons; assay: MPP+ intoxication model in midbrain cell cultures, survival of DA (TH+) neurons; assay type: cell-based, Wistar rat; conditions: for neuroprotective effect against MPP+-induced DA cell death, compared with reference clone HB7: 3 μM MPP+ between 5 and 7 DIV, each clone and HB7 0.5 μg/mL; for neuroprotective effect in the presence of the lysosomal exocytosis inhibitor vacuolin-1: 3 μM MPP+, test substance 1 μg/mL, vacuolin-1 10 μM
Description: For this purpose, spontaneously occurring DA cell death was prevented by a treatment combining depolarizing concentrations of K^+ (30 mM) and MK801 (5 μM), a glutamate receptor antagonist used to prevent unwanted excitotoxic insult. The cultures were then exposed to 3 μM MPP between 5 and 7 days in vitro (DIV) to achieve a loss of approximately 50% of DA neurons.
Animals were treated in accordance with the Guide for the Care and Use of Laboratory Animals (National Research Council, 1996), European Directive 86/609, and the guidelines of the local institutional animal care and use committee. Cultures were prepared from the ventral mesencephalon of gestational age 15.5 Wistar rat embryos (Janvier Breeding Center, Le Genest St Isle, France). Dissociated cells in suspension obtained by mechanical trituration of midbrain tissue pieces were seeded at a density of 1.2-1.5×10^5 cells/cm^2 onto tissue culture supports precoated with 1 mg/mL polyethylenimine diluted in borate buffer pH 8.3 as described (Michel et al., 1997. J Neurochem. 69(4):1499-507). The cultures were then maintained in N5 medium supplemented with 5 mM glucose, 5% horse serum, and 0.5% fetal calf serum, except for the first 3 DIV, when the concentration of fetal calf serum was 2.5% to favor initial maturation of the cultures (Guerreiro et al., 2008. Mol Pharmacol. 74(4):980-9). They were fed daily by replacing 70% of the medium. Routinely, mesencephalic cultures were established on Nunc 24-well culture plates (Thermofischer Scientific, Rochester, N.Y.). Note that these cultures contain tyrosine hydroxylase (TH)^+ neurons that were exclusively dopaminergic (Traver et al., 2006. Mol Pharmacol. 70(1):30-40). TH^+ neurons represented approximately 1-2% of the total number of neuronal cells present in these cultures. The evaluation of the survival of DA neurons was performed by counting cells immunopositive for TH as described (Toulorge et al., 2011. Faseb J. 25(8):2563-73).
Treatments with MPP were performed in cultures where the spontaneous death process was prevented by long-term exposure to depolarizing concentrations of K^+ (30 mM), in the presence of the glutamate receptor antagonist MK801 (5 μM) to prevent unwanted excitotoxic insults as described previously (Douhou et al., 2001. J Neurochem. 78(1): 163-74). Treatments with MPP and potential neuroprotective molecules were carried out between 5 and 7 DIV.
The cultures were fixed for 12 min using 4% formaldehyde in Dulbecco's phosphate-buffered saline (PBS), then washed twice with PBS before an incubation step at 4° C. for 24 h with the following antibodies. A monoclonal anti-TH antibody diluted 1/5000 (ImmunoStar, Inc., Hudson, Wis.) was used to assess the survival of DA neurons. Antibody was diluted in PBS containing 0.2% Triton X-100. Detection of the primary antibodies was performed with an Alexa Fluor-488 conjugate of an anti-mouse IgG antibody.

[5] = tested on: human peripheral blood mononuclear cells (PBMCs); assay: IL-10 release from human PBMCs in vitro (ELISA); assay type: cell-based; conditions: PBMCs from 3 healthy donors; 10 μg/ml; LPS 500 ng/mL and interferon-γ 1B 100 ng/mL; 24 hours
Description: 3 healthy volunteers (Donor 1: Donor 2: Donor 3) served as blood donors. Venous blood (5 mL) was collected into heparinized tubes and immediately processed. Briefly, blood was diluted 1/1 in pre-warmed RPMI 1640 medium. PBMCs were isolated using gradient centrifugation in Ficoll solution (Sigma; 300×g, 30 min). Isolated PBMCs were re-suspended in 1 volume of pre-warmed RPMI 1640 medium and centrifuged again (300×g, 30 min). PBMCs were re-suspended in RPMI 1640 medium supplemented with 10% human serum (Sigma-Aldrich) at a concentration of 10^7 cells per mL. Cells were seeded in 96 well microplate (100 μL per well). Test compounds (10 μg/ml), LPS (500 ng/mL) and interferon-γ 1B (100 ng/mL) were added to PBMCs culture immediately after plating. After 24 hours, cell culture supernatants were collected and frozen at −80° C. for further processing.
IL-10 levels in cell culture supernatants were assayed using an ELISA human IL-10 kit (Ozyme®) according to the indications for use specified by the manufacturer.

Row | Molecule | neuroprotective effect against MPP+-induced DA cell death, compared with reference clone HB7 [4] | neuroprotective effect in the presence of the lysosomal exocytosis inhibitor vacuolin-1 [4] | IL-10 release [5] | also measured
1 | murine sCD31 (from UniProt Q08481 18-585) (ligand) |  |  |  | EC50 of prevention of MPP+-induced DA cell loss (TH+ cell survival in midbrain cultures) [1]: 0.036 µg/mL
2 | Daratumumab: anti-CD38 antibody Daratumumab [reference compound] |  |  |  | neuroprotective effect in 6-OHDA model ([2]; 15 mg/kg iv one day before 6-OHDA injection): failed to demonstrate neuroprotective activity
3 | B1 |  |  |  | Brain/plasma ratio [3]: 0.385%
4 | B2 | stronger neuroprotective effect | antagonized | statistically significantly increased | 
5 | B3 | stronger neuroprotective effect | antagonized | statistically significantly increased | protection of dopaminergic neurons of the right substantia nigra pars compacta ([2]; 0.1 mg/kg injected intracerebrally concomitantly with 6-OHDA): statistically significantly protected
6 | B4 |  | antagonized |  | 
7 | B5 | stronger neuroprotective effect |  |  | 
8 | B6 |  | antagonized | statistically significantly increased | 
